B1: TMEM106C (parent)
chain: FTGRDSITCLTCQGTGYIPTEQVN

Variants of: B1
Assay: protein stability index of a GFP-peptide fusion (GPS, HEK-293T) (PSI 1-6); higher = more stable
Conditions: c terminus: a fixed tail appended
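Further: lentivirally expressed fusions sorted by FACS into six bins by GFP to DsRed ratio, PSI derived from sequencing read proportions per bin multiplied by bin number.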

Protein stability index, by site and new letter:
T15: L 1.89; M 2.59; N 1.62; P 2.1; Q 1.53; R 2.26; S 1.56; V 2.04; W 2.34; Y 2.52
G16: A 1.92; C 1.83; D 1.56; E 1.7; F 2.71; H 2.01; I 2.94; K 1.56; L 2.13; M 2.8; N 1.49; P 3.09; Q 1.6; R 2.21; S 2.05; T 2.04; V 1.85; W 2.98; Y 2.08
Y17: A 1.8; C 2.13; D 2.17; E 2.2; F 1.64; G 1.47; H 2.61; I 1.92; K 1.94; L 1.84; M 1.77; N 1.93; P 1.91; Q 1.79; R 2.34; S 1.68; T 2.16; V 2.55; W 3.54
I18: A 1.93; C 1.91; D 1.96; E 1.53; F 1.86; G 1.48; H 2.4; K 1.82; L 2.55; M 2.78; N 1.61; P 1.58; Q 2; R 2.57; S 2.09; T 3.01; V 1.64; W 1.86; Y 1.68
P19: A 2.04; C 2.29; D 1.76; E 2.02; F 2.43; G 1.63; H 2.35; I 1.84; K 2; L 2.29; M 2.15; N 1.96; Q 2.05; R 1.26; S 2.23; T 2.21; V 2.67

Source: the supplement of paper PMC10567573
